US10801046B2, “Methods and materials for biosynthesizing multifunctional, multivariate molecules via carbon chain modification” (INVISTA NORTH AMERICA S.A.R.L., priority 2016, dated 2020)

B1: SEQ ID NO: 214: Mycobacterium lepromatosis carboxylate reductase (protein, listed as Mycobacterium lepromatosis)
chain: MSTTNTQEEQLARRVDYLTANDPQFAAAKPDPAVVAALAQPGLRLPQIIQTTLDGYAERPALGQRVVEFIKDPKTGRTSIELLPCFETITYRELSDRVGALARAWIHDLLHAGDRVCVLGFNSVDYAIIDMALGVISAVAVPLQTSAAITQLQPIVIETEPRVIAASVNQLPDTVELILSGPAPAKLVVFDYHPEADEQRDAVATARERLVDNNVVVESLIEVLDRGKTLPATPIPVADDSDDPLALLIYTSGSTGAPKGAMYPQSNVGKMWRRSDGNWFRSTAASITLNFMPMSHVMGHGILYGTLGNGGTAYFAARSDLSTLLEDLKLVRPTELNFVPRIWETLYDECQHAVDRRLTNSGSADRAAIEAEVMDEQRQSLLGGRYIAAMTGSAPTSPELKHGVESLLEMHLLEGYGSTEAGMVLFDGEVQRPPVIDYKLVDVPDLGYFSTDQPYPRGELLLKTQNMFPGYYKRPEVTATVFDGDGYYQTGDIVAEVGPARLVYVDRRNNVLKLAQGQFVTVAQLEAAFSNSPLVRQIYIYGNSAHPYLLAVVVPTEDALATNDIEALKPLIIDSLQEVAKEAELQSYEVPRDLIIETTPFSLENGLLTGIRKLAWPKLKQHYGARLEQLYADLAEGQTNALHALRQSGAEAPVLQTVSRAAGTILGAATTDLPSNAHFTDLGGDSLSALTFSNLLRELFNIDVPVGVIVSPVNDLAAIADYIESEQQGTKRPTFTAIHGRDAGEVHASDLTLDKFIDVSTLTAAPMLAQPDAEVRTVLLTGATGFLGRYLALKWLERMDLVDGKVIALVRAKSNEEARARLGKTFDSGDPKLLAHYQELAADHLEVIAGDKGEVELELDRQTWRRLADTVDLIVDPAALVNHVLPYSELFGPNALGTAELIRIALTSKQKPYIYVSTIGVGDQIEPAKFTEDSDIRVTSPTRKINDNYANGYGNSKWAGEVLLREAHELCGLPVAVFRCDMILADTSYAGQLNVPDMFTRMMLSLAATGIAPGSFYELDAESNRQRAHYDGLPVEFIAEAISTLGAQSLHGRDGFATYHVMNPHDDGIGMDEFVDWLIDAGCPIQRINDYDEWLRRFEISLRALPERQRHNSLLPLLHNYQKPEKPLNGSLAPTDRFRTAVQESKIVQDKDIPHISSAIIGKYVSDLQLLGLLRRQADRSPARVPS
B2: SEQ ID NO: 210: Rhizopus microspores carboxylate reductase (protein, listed as Rhizopus microsporus)
chain: MPPAFDPPYSVPVPGSEKKEGETVPFRHFKFADKLVDHPEGVFTAWDIFVHGYDSAGDKPFMGTRRIEDGVAKEYVWQNYPEVRTRIENFGKGMLHLGLKRQHAIGVYSVNRPEWTMTEIASYRQAFMIVALYDTLGAEAMEYIINQTSMEYIVLSADKLDNIIRLKSQIATISTAIVMDDEVDDAKKAEAEAAGIKVYTFRQVETMGSEITSESDLPKPEDIATICYTSGTTGVPKGAVITQANCVAAISAIAALGDKGTFADVNSDDIYISYLPLAHVFERVAQGIHLFRGAAIGYYQGDTLKLLDDIAELRPTVFCSVPRLFNRIYDKVLAGVKAKGGVSAYLFNTAFQSKKRHLSKTVHHWLWDRVVFTQIRQKLGGRLRFILSGSAPVSPDVMDFMRICFSAKVFEGYGQTENFCGGALTITDDNTSGVVGAPFPCSEIKLVDVPEMEYFSTDKPFPRGEICIRGTSIMQGYYQLPEKTAEAIDKDGWLHTGDIGQFDSANRLVIIDRLKNIFKLSQGEYIAPEKIEGVYQKHELVAQAFIYGDSMQSSLVGIIVPDKDAFSAWAKEHFPTVEDPYASDEVKKALLKELTAYGKENDLKGFEQMRSVYLTPNEFSIENDLLTPTFKLRRENAKKVYESQIEIMYASLSNGRAFN
B3: SEQ ID NO: 212: Anisakis simplex carboxylate reductase (protein)
chain: MYERLLHCIGYQVGLRFGFFGGDVNRLIDDIKELHPTVIPLVPRVLNRFHDTVMAKVNKSFLKRIIFNLALAFKYRELSRSIIRNDSLVDRYVFKRVREELGGRARFSMIGSAPVHGDILRFSRAVLGYVIVEGYGATECAAGTSAVIEADPITEHIGIPLACAAIKLVDVPELGYYAKDQAGEICYRGAHVFKGYFKNDEGTKEVLDADGWLHSGDIGRWTERGTLKIVDRKKHIFKLQQGEYIAPEKIEAVYDRSEYVVQSFVYGESLKTCLVAIIVPDQEIVLRDAKQKLDLAETDFAKLCRNDAVKKMILNDLTIVGRKAGLNSFEQVKDIYLSVERFTIANDLLTPTMKNKRPQIKSHFMKELNEMYSKLK
modifications: Anisakis simplex
notes: Anisakis simplex carboxylate reductase
B4: SEQ ID NO: 213: Helobdella robusta carboxylate reductase (protein, listed as Helobdella robusta)
chain: MRVSNNGPFLGHRCRFTKQYVWQTYEEIFELCQDFGSALIYKGLKPEDSTVIGIYSHNCVEWNITSETCSMFSMALVPLYDTLGPEACQYIINQTEMTTVVCEGWLKANLILNGLKQAESRTATPLKRLIIITNKDFHMSLKDSVRVSKHFSSSPDLANFADADSLSKNVLETAEKFGVEIPPTPSTINLISYTSGTTGDPKGVVLTHEAVICNISGLLAYDQHHKLFPKCGDFHLSYLPAAHGFERMNQIILMINGGQIGFSSGDILLLLDDIAALRPTIFMCVPRVLNRVYEKVMSNLENKPIKRWLFNFGMQRKLNLLKRGIITKNTIWDKLMFHKIQTLFGGRLEVCISGSAPLSDVVMDFCRGTFGCFVYEGYGQTELCAATMLTLPYEHDTVVVGPPLPNCHIKLIDIPDLDYKAINNMGEICIKSFCRMREYFKEPIKTRETLDEDSYIHTGDVGMWLPNGNLRIIDRRKHVFKLAQGEYVAPEKIENIYAMSPLICQVFVDGNSLQFCPLAVVVPDEDALKRLAERDSRTSKTICPIKICNMEQFCKNEEIRKMIHADMLQRGKKAGLKGFEQVKDIHLHPEKFSIENGLLTPTMKTKRPILRKKFQNIFVEMYEKLNRNVVSTNITTHPLQNL
B5: SEQ ID NO: 209: Nocardia brasiliensis NBRC 14402 carboxylate reductase (protein)
chain: MERKAEVLAARRVEDLIERDAQVRAAIPDPVVTAELERADGSLAQTVARVMAGYADRPALGQRAVEFVPDENGCRRTRLLPWFDTITFGELWQRVGTVAAVWQSRAERSVRAGDFVAVLGSTGIDYTVVDLACTYSGAVPVPLQAGASPTQLAPIVREVEPKVLATDVGQLEVAVDLASAGDSVRSLLIFGLYAEDDEHCAAVESARRRLADTPVVVETIVELLASGQDRPAASLHASADPDELALLIYTSGSTGTPKGAMYTQRLLTNAWCAAGASPMPSIALSYLPMSHTMARQLLLTGLARGGTVYFAARNDMSTLFDDFALARPTLLGFVPRVCDMVLQRFQSEMARRVGADDEPTVVEQEVKTELREQFLGGRFLVASIGSAPLSADMREFMQSVLGIALIDAYGSTETGGVLMNNKVVRTAILDYKLVDVPELGYFSTDRPHPRGELLIKSRTLIPGYYKRPELNSQFFDAEGFYRTGDVMAQTGFDELVYVDRRNSVLKLSQGEFVAVSKLEAIFVGSPLVEQIYVYGSSERAYLLAVIVPVAEAIATHAGTAELKAAISESLRQIAKDAELSSYEVPRDFLLESEPFTVDNGLLAGLSKLLRPSLKERYGERLEALYRVAEAAQTQELAALRQQAGMLPVLETVSRAAQAVLGVSAAELRPDAHFTDLGGDSLAALSFSTLLQELLGVQVPVGVIASSANDLRRIANYAVAERSAGSLRPTSTGVHGTGSQLRAIDLRLDKFIDPSTLAAATTLPRAGEPRTVLLTGANGYLGRFLCLEWLQRLHHSGGTLICVVRGIDAVAARERLDEVFDSGDPELLHRYRELAEGTLEVLCGDISEPGLGLSERDWRRLADTVELIVHAAALVNHVLPYGQLFGPNVVGTAEIIRLAMTTRIKPVTYLSTVAVAAQVAPEQFTEDGDIREISAVRSLDEGYADGYGTSKWAGEVLLREAYDLCGLPVAVFRSDMILAHSRFAGQLNVSDMFTRLVLSVLATGVAPKSFYETDRMGNRQRAHYDGLPVDFTAQAITVLGSQVVSGFETFDVLNPHDDGLSLDEFVDWLIAAGHSIDRIDGYAEWLSRFGTALRVLSERQRQHSVLPLLHAYRRAAVPIPGAALPAKKFQAAVQDAQLGPGRDIPHLTPDLIEKYVSDLKLRNLL
modifications: Nocardia brasiliensis NBRC 14402
notes: Nocardia brasiliensis NBRC 14402 carboxylate reductase
B6: SEQ ID NO: 211: Theileria parva carboxylate reductase (protein, listed as Theileria parva)
chain: MNHLYSVALEGTEEEGYTPVYRNPDYKDRLLSCEDYFDGKIQTGWDIFNRGLTLSRNKPFLGSRVKNADGTFGEFKFMTYGEVEDQIKHFGSGLLNLDKFKEVFVKEENQMVKMLGIYSQNTVEWLITEQVCNGYNLTLVPLYDTLGEESLLYIINVTKLNVIVCDYKCSLKLLDLLPKSNGSVSLVVVTGVDELPDQVTAKSQSLSSVTFKTYQEVVNFGKEDPLAFTPCTKDSIGTISYTSGVSGIPKGVIVKHFQHASLVVIVNRIVCDLEKTQLENPKVHLSYLPLSHMFERLYIGTSIIEGSVIGLFSGDVKNILEDIKALRPNVFPSVPRLYMRIHDKIFSTVSQKSFLIRSLFGLGLSRKLKKIRKTGVVTHRFWDKILFNKFNTLLGGRVNWMLTGSAPLSPKIFDNIRALFSIPLVSGYGLTETCAGAFHTERYEPDSTHVGGPVPCMEFRLKSLPDYNYYTTDKNPKGELLLRGNNIVTSYFSDDVTNKESFDENKWFLTGDIAELLPNGAIRIIDRRKNIFKLSQGEYISPEKIESILNTAPILCQSYVTGKSHFLNPVAVVVPDELELELWSKRYGLANLDRKEQCEVKQLKEFIAKEIEKVFENSDVKGFEKIKNFYVEHELFSIENNLLTTTSKLKRYNLSKKYAEQIDRLNDES

assay: In vivo carboxylate reductase screening, substrate consumption by LC-MS, monomethyl heptanedioate; type: cell-based, Escherichia coli; settings: 541 enzymes screened in vivo
Description: To screen carboxylate reductases in vivo, […] T7- pUC expression vectors was co-transformed into T7 Express lysY/Iq with the phosphopantetheinyl transferase sfp from Bacillus subtilis on a T7-pCDF expression vector. Biological duplicates of the resulting strains were incubated in 0.5 mL of terrific broth containing either 1 g/L heptanedioate or 1 g/L monomethyl heptanedioate and supplemented with 0.4 mM IPTG in 96-well deep well plates. The plates were incubated for 30 h at 30° C. in a shaking incubator. The cells were then pelleted, and culture supernatants from the same strains in media containing either heptanedioate or monomethyl heptanedioate were combined. The combined supernatants were analyzed by LC-MS to determine the concentration of heptanedioate and monomethyl heptanedioate. Carboxylate reductase activity on heptanedioate or monomethyl heptanedioate was reflected by consumption of the respective substrate in the medium.

Question: Which monomethyl heptanedioate activity does the source give for B1 here?
Answer: most monomethyl heptanedioate activity

Question: Which monomethyl heptanedioate activity does the source give for B2 here?
Answer: most monomethyl heptanedioate activity

Question: For B3, which monomethyl heptanedioate activity is on record?
Answer: most monomethyl heptanedioate activity

Question: Which monomethyl heptanedioate activity does the source give for B4 here?
Answer: most monomethyl heptanedioate activity

Question: With B5 as the molecule, how does the monomethyl heptanedioate activity read?
Answer: most monomethyl heptanedioate activity

Question: Which monomethyl heptanedioate activity does the source give for B6 here?
Answer: most monomethyl heptanedioate activity
